Source: paper PMC6465384

Target: SpyDock (SpyCatcher2.1 S49C E77A), carbamidomethylated
Assay: ITC; 20 μM carbamidomethylated SpyDock in the cell, 20 injections of 210 μM SpyTag-MBP or SpyTag002-MBP from the syringe; 25 °C; 20 mM HEPES pH 7.0, 150 mM NaCl; 1:1 binding model

| Substance | Kd | stoichiometry N |
| --- | --- | --- |
| SpyTag002-MBP | 73 nM | 1 |
| SpyTag-MBP | 750 nM | 1 |
